Measured values as given in PMC8879737.
Values joined by “and” are separate entries in the source; they are usually repeats but may differ in a detail not shown here. Identical values can stand only once. Like-named read-outs stand apart in the source and are kept apart here.

Assays:
[1] = target: human whole molecule IgG (human); test: SPR; Biacore 2000; human IgG Fc and human, rabbit, mouse, guinea pig whole IgG amine coupled to CM5 chips (854, 1348, 1094, 857, 1143 RU); gE monomers and gE/gI heterodimers at 750 μg/mL (Bac gE-1 t411 490 μg/mL) flowed at 30 μL/min in 0.01 M HEPES pH 7.4, 0.15 M NaCl, 0.005% P20; one concentration, RU at the end of association and of dissociation
[2] = target: rabbit whole molecule IgG (rabbit); test: as above
[3] = target: ChromePure human IgG Fc (human); test: as above
[4] = target: human whole molecule IgG (human); test: as above; remark: listed apart in the source
[5] = target: rabbit whole molecule IgG (rabbit); test: as above; remark: listed apart in the source
[6] = target: guinea pig whole molecule IgG (guinea pig); test: as above
[7] = target: ChromePure human IgG Fc (human); test: as above; remark: listed apart in the source
[8] = target: gE-2 t417 (HSV-2 strain 333); test: SEC-MALS; Superdex 200, 10 mM HEPES, 150 mM NaCl, pH 7.5, 20 °C, 0.5 mL/min; 200 µg injected; conjugate analysis (protein and carbohydrate)

Substance | RU post association [1] | RU post association [2] | RU post association [3] [RU] | RU post association [4] [RU] | RU post dissociation [4] [RU] | RU post association [5] [RU] | RU post dissociation [5] [RU] | RU post association [6] [RU] | RU post dissociation [6] [RU] | RU post association [7] [RU] | RU post dissociation [7] [RU] | stoichiometry N [8]
Bac gE-1 t411 (domain or fragment) | 157 RU and 145 RU | 228 RU and 221 RU | 80 | 147 | 32 | 231 | 75 | 32 | 3.3 | 77 | – | –
gE-1 t419 (domain or fragment) | – | – | – | 127 | -1.9 | 188 | 0.6 | 27 | -2.4 | – | – | –
gE-1 t419/gI-1 t269 (complex) | – | – | – | 232 | 189 | 195 | 170 | 19 | 0.8 | 216 | 137 | –
gE-2 t24-405/gI-2 t262 (complex) | – | – | – | 136 | 12 | 142 | 25 | – | – | 95 | 6.6 | –
gE-2 t405/gI-2 t262 (complex) | – | – | – | 142 | 14 | 165 | 34 | – | – | 100 | 7.7 | –
gE-2 t414/gI-2 t262 (complex) | – | – | – | 79 | -0.4 | 75 | -0.6 | – | – | 53 | 0.6 | –
gE-2 t417/gI-2 t262 (complex) | 53 RU and 133 RU | – | – | 52 | -2.1 | 46 | -1.5 | – | – | – | – | –
gI-2 t262 (strain 333) (domain or fragment) | – | – | – | – | – | – | – | – | – | – | – | 1
